Assays:
Assay in all cases: cell_activity
[1] = test system: TALE nuclease pair BnFAD2_T01 (synthetic construct); settings: Westar protoplasts
[2] = test system: TALE nuclease pair BnFAD2_T02 (synthetic construct); settings: Westar protoplasts
[3] = test system: TALE nuclease pair BnFAD2_T05 (synthetic construct)
[4] = test system: TALE nuclease pair BnFAD2_T07 (synthetic construct); settings: Westar protoplasts
[5] = test system: TALE nuclease pair BnFAD2_T03 (synthetic construct); settings: Westar protoplasts

Sequence: TCCCCCACCCTCTCCCTTACCTCGCCTGGCCCCTCTACTGGGCCTGCCA (double strand) [BnFAD2_T01 site in BnaC.FAD2.b (SEQ ID NO:15)]
- activity (% mutagenesis) ([1]; BnaC.FAD2.b, mismatched site): 1.9

Sequence: TCCCTCACCCTCTCTCCTACTTCGCCTGGCCTCTCTACTGGGCCTGCCA (double strand) [BnFAD2_T01 site in BnaA/BnaC.FAD2.a (SEQ ID NO:8)]
- activity (% mutagenesis) ([1]; BnaA.FAD2.a, 25 C, 2 days, half-sites not demarcated): 8.3
- activity (% mutagenesis) ([1]; BnaC.FAD2.a, 25 C, 2 days): 10

Sequence: TCGTCCCTTACTTCTCCTGGAAGTACAGTCATCGACGCCACCATTCCAA (double strand) [BnFAD2_T02 site in BnaA/BnaC.FAD2.a (SEQ ID NO:9)]
- activity (% mutagenesis) ([2]; BnaA.FAD2.a): 9.7
- activity (% mutagenesis) ([2]; BnaC.FAD2.a): 10.3

Sequence: TCGTCCCTTACTTCTCCTGGAAGTACGGCCATCGACGCCACCATTCCAA (double strand) [BnFAD2_T02 site in BnaC.FAD2.b (SEQ ID NO:17)]
- activity (% mutagenesis) ([2]; BnaC.FAD2.b): 5.5

Sequence: TCTGGGTCATAGCCCACGAGTGCGGCCACCACGCCTTCAGCGACTACCA (double strand)
- activity (% mutagenesis) ([3]; BnaA.FAD2.a, Westar protoplasts): 3.8
- activity (% mutagenesis) ([3]; BnaC.FAD2.a, Westar protoplasts): 4.4
- activity (% mutagenesis) ([4]; BnaA.FAD2.a): 2.2
- activity (% mutagenesis) ([4]; BnaC.FAD2.a): 2.8

Sequence: TCTGGGTCATCGCCCACGAATGCGGCCACCACGCCTTCAGCGACCACCA (double strand) [BnFAD2_T05/T07 site in BnaC.FAD2.b (SEQ ID NO:14)]
- activity (% mutagenesis) ([3]; BnaC.FAD2.b, printed as 23 but 1549/67387 reads = 2.3): 2.3
- activity (% mutagenesis) ([4]; BnaC.FAD2.b): 2.6

Sequence: TGCGAGACACCACCCTTCACTCTCGGAGACCTCAAGAAAGCAATCCCA (double strand) [BnFAD2_T03 site in BnaC.FAD2.b (SEQ ID NO:19)]
- activity (% mutagenesis) ([5]; BnaC.FAD2.b): 10

Sequence: TGCGAGACACCGCCCTTCACTGTCGGAGAACTCAAGAAAGCAATCCCA (double strand) [BnFAD2_T03 site in BnaA/BnaC.FAD2.a (SEQ ID NO:10)]
- activity (% mutagenesis) ([5]; BnaA.FAD2.a): 9
- activity (% mutagenesis) ([5]; BnaC.FAD2.a): 9.8

From patent publication US20210277411
